Results reported in the Human Domainome abundance scans (Beltran et al. 2025).
± gives the uncertainty stated by the source.

B1: Protein C-ets-1, residues 55 to 135; numbered along this chain, P14921 (parent)
chain: GFTKEQQRLGIPKDPRQWTETHVRDWVMWAVNEFSLKGVDFQKFCMNGAALCALGKDCFLELAPDFVGDILWEHLEILQKE

Variants of: B1
Experiment: abundance fitness (aPCA) (normalised: wild type 0, dead -1); higher = more abundant; growth selection in yeast, the domain comes from the species named
Conditions: Homo sapiens

Going from F59S to F59W, the abundance fitness rises from -0.918 ± 0.063 to -0.318 ± 0.039.

F59T and F59H are within error of each other in abundance fitness: -0.963 ± 0.096 for the first, -0.953 ± 0.14 for the second.

D25G and D25A are within error of each other in abundance fitness: -0.038 ± 0.027 for the first, 0.014 ± 0.027 for the second.

D25R and D25C are within error of each other in abundance fitness: -0.023 ± 0.027 for the first, -0.01 ± 0.048 for the second.

D25Y and N47T are within error of each other in abundance fitness: -0.027 ± 0.048 for the first, 0.065 ± 0.061 for the second.

A50T and A50Q are within error of each other in abundance fitness: -0.026 ± 0.041 for the first, 0.015 ± 0.058 for the second.

A50L and A50I are within error of each other in abundance fitness: -0.202 ± 0.034 for the first, -0.236 ± 0.078 for the second.

A50R and K13W are within error of each other in abundance fitness: -0.063 ± 0.034 for the first, -0.117 ± 0.05 for the second.

K13P and K13E are within error of each other in abundance fitness: 0.023 ± 0.057 for the first, -0.084 ± 0.053 for the second.

K13T and F41N are within error of each other in abundance fitness: -0.064 ± 0.062 for the first, -0.039 ± 0.11 for the second.

Compared with F41E, D14Y is lower in abundance fitness: -0.031 ± 0.052 for the first, -0.407 ± 0.046 for the second.

D14H and Q79H are within error of each other in abundance fitness: -0.155 ± 0.044 for the first, -0.178 ± 0.12 for the second.

M28Y and M28W are within error of each other in abundance fitness: -0.153 ± 0.087 for the first, -0.11 ± 0.039 for the second.

Going from M28P to M28E, the abundance fitness rises from -0.88 ± 0.069 to 0.005 ± 0.047.

M28I and M28F are within error of each other in abundance fitness: 0.006 ± 0.073 for the first, -0.088 ± 0.057 for the second.

T3M and T3H are within error of each other in abundance fitness: -0.028 ± 0.072 for the first, -0.066 ± 0.094 for the second.

First: I11E
Second: I11A
The abundance fitness of the first is lower: -0.773 ± 0.098 for the first, -0.326 ± 0.033 for the second.

I11C and I11T are within error of each other in abundance fitness: -0.108 ± 0.1 for the first, -0.205 ± 0.051 for the second.

I11N and K43M are within error of each other in abundance fitness: -0.288 ± 0.074 for the first, -0.315 ± 0.083 for the second.

Going from K43V to K43R, the abundance fitness rises from -0.425 ± 0.045 to -0.007 ± 0.036.

Going from K43T to V67T, the abundance fitness rises from -0.302 ± 0.048 to -0.057 ± 0.086.

First: V67R
Second: V67W
The abundance fitness of the first is higher: -0.167 ± 0.048 for the first, -0.414 ± 0.096 for the second.

V67L and V67H are within error of each other in abundance fitness: -0.256 ± 0.061 for the first, -0.284 ± 0.14 for the second.

V67I and D57L are within error of each other in abundance fitness: -0.159 ± 0.1 for the first, -0.216 ± 0.033 for the second.

D57V and D57H are within error of each other in abundance fitness: -0.097 ± 0.03 for the first, -0.049 ± 0.058 for the second.

First: D57G
Second: D57Y
The abundance fitness of the first is higher: -0.083 ± 0.028 for the first, -0.326 ± 0.1 for the second.

D57I and D57R are within error of each other in abundance fitness: -0.185 ± 0.09 for the first, -0.063 ± 0.034 for the second.

Q7V and R16S are within error of each other in abundance fitness: -0.028 ± 0.033 for the first, -0.096 ± 0.041 for the second.

R16Y and R16W are within error of each other in abundance fitness: -0.049 ± 0.11 for the first, -0.107 ± 0.062 for the second.

R16Q and R16A are within error of each other in abundance fitness: -0.006 ± 0.067 for the first, -0.009 ± 0.039 for the second.

R16C and R16E are within error of each other in abundance fitness: -0.04 ± 0.082 for the first, -0.01 ± 0.06 for the second.

V39G and V39Q are within error of each other in abundance fitness: -0.714 ± 0.046 for the first, -0.683 ± 0.12 for the second.

Going from V39A to V39F, the abundance fitness rises from -0.511 ± 0.043 to -0.239 ± 0.096.

Compared with V39C, V39R is lower in abundance fitness: -0.194 ± 0.06 for the first, -0.749 ± 0.049 for the second.

F66N and F66T are within error of each other in abundance fitness: 0.073 ± 0.094 for the first, 0.037 ± 0.048 for the second.

W29D and W29V are within error of each other in abundance fitness: -0.685 ± 0.064 for the first, -0.767 ± 0.044 for the second.

Compared with W29C, E76N is higher in abundance fitness: -0.364 ± 0.061 for the first, 0.057 ± 0.32 for the second.

Compared with P12T, P12G is higher in abundance fitness: -0.799 ± 0.16 for the first, -0.427 ± 0.034 for the second.

Compared with P12C, P12V is lower in abundance fitness: -0.305 ± 0.069 for the first, -0.763 ± 0.065 for the second.

Q6L and Q6I are within error of each other in abundance fitness: -0.006 ± 0.043 for the first, 0.034 ± 0.084 for the second.

Q6C and Q6R are within error of each other in abundance fitness: -0.113 ± 0.053 for the first, -0.041 ± 0.031 for the second.

Compared with Q6H, Q6T is higher in abundance fitness: -0.235 ± 0.047 for the first, -0.102 ± 0.062 for the second.

Q6N and Q17R are within error of each other in abundance fitness: -0.136 ± 0.2 for the first, -0.058 ± 0.036 for the second.

Compared with Q17M, Q17P is lower in abundance fitness: 0.014 ± 0.06 for the first, -0.983 ± 0.14 for the second.

First: Q17H
Second: D40F
The abundance fitness of the first is higher: -0.115 ± 0.069 for the first, -0.685 ± 0.11 for the second.

D40Y and F44D are within error of each other in abundance fitness: -0.651 ± 0.11 for the first, -0.724 ± 0.18 for the second.

F44Q and F44G are within error of each other in abundance fitness: -1.08 ± 0.24 for the first, -1.02 ± 0.098 for the second.

First: F44C
Second: M46V
The abundance fitness of the first is lower: -1.01 ± 0.2 for the first, -0.234 ± 0.028 for the second.

First: M46A
Second: M46K
The abundance fitness of the first is lower: -0.652 ± 0.05 for the first, -0.376 ± 0.065 for the second.

Compared with M46E, T21C is higher in abundance fitness: -0.991 ± 0.13 for the first, -0.089 ± 0.049 for the second.

T21Q and T21Y are within error of each other in abundance fitness: 0.002 ± 0.053 for the first, 0.043 ± 0.12 for the second.

T21E and T21F are within error of each other in abundance fitness: -0.073 ± 0.071 for the first, -0.11 ± 0.07 for the second.

Going from T21A to K37L, the abundance fitness falls from 0.002 ± 0.033 to -0.161 ± 0.029.

Going from K37D to K37M, the abundance fitness falls from -0.022 ± 0.052 to -0.146 ± 0.044.

Going from K37Y to K37T, the abundance fitness rises from -0.255 ± 0.059 to -0.027 ± 0.047.

Compared with V27C, V27I is higher in abundance fitness: -0.18 ± 0.044 for the first, -0.003 ± 0.055 for the second.

Compared with V27S, V27F is higher in abundance fitness: -0.841 ± 0.046 for the first, -0.214 ± 0.046 for the second.

Going from A53Q to A53W, the abundance fitness falls from -0.097 ± 0.046 to -0.583 ± 0.045.

A53R and A53K are within error of each other in abundance fitness: -0.046 ± 0.024 for the first, -0.021 ± 0.048 for the second.

Compared with A53H, A53Y is lower in abundance fitness: -0.188 ± 0.075 for the first, -0.583 ± 0.081 for the second.

A53N and K4Y are within error of each other in abundance fitness: 0.01 ± 0.052 for the first, -0.039 ± 0.092 for the second.

K4T and K4F are within error of each other in abundance fitness: -0.071 ± 0.066 for the first, 0.038 ± 0.12 for the second.

W18E and W18C are within error of each other in abundance fitness: -0.814 ± 0.086 for the first, -0.785 ± 0.13 for the second.

Compared with W18M, C58N is higher in abundance fitness: -1.08 ± 0.27 for the first, 0.033 ± 0.055 for the second.

C58H and C58S are within error of each other in abundance fitness: 0.039 ± 0.056 for the first, 0.035 ± 0.027 for the second.

C58G and C58D are within error of each other in abundance fitness: 0.049 ± 0.024 for the first, 0.056 ± 0.07 for the second.

Going from L78C to L78F, the abundance fitness falls from -0.16 ± 0.034 to -0.39 ± 0.06.

Going from L78M to G48R, the abundance fitness falls from -0.116 ± 0.087 to -0.933 ± 0.085.

G48V and G48K are within error of each other in abundance fitness: -0.805 ± 0.073 for the first, -0.911 ± 0.35 for the second.

G48H and G48L are within error of each other in abundance fitness: -0.94 ± 0.47 for the first, -1.05 ± 0.086 for the second.

G55R and G55P are within error of each other in abundance fitness: -0.04 ± 0.029 for the first, 0.01 ± 0.037 for the second.

First: G55C
Second: G10T
The abundance fitness of the first is higher: 0.019 ± 0.057 for the first, -0.103 ± 0.047 for the second.

Compared with G10V, L71D is lower in abundance fitness: -0.2 ± 0.032 for the first, -0.657 ± 0.14 for the second.

L71P and L71A are within error of each other in abundance fitness: -0.891 ± 0.1 for the first, -1.15 ± 0.21 for the second.

Compared with V31I, V31F is lower in abundance fitness: -0.053 ± 0.07 for the first, -0.645 ± 0.067 for the second.

Going from V31C to V31H, the abundance fitness falls from -0.013 ± 0.045 to -0.495 ± 0.071.

Compared with A30H, A30D is lower in abundance fitness: -0.107 ± 0.098 for the first, -0.671 ± 0.086 for the second.

Compared with A30E, A30G is lower in abundance fitness: -0.032 ± 0.044 for the first, -0.197 ± 0.033 for the second.

First: E20W
Second: E20G
The abundance fitness of the first is lower: -0.463 ± 0.045 for the first, -0.264 ± 0.023 for the second.

E20A and E20P are within error of each other in abundance fitness: -0.035 ± 0.025 for the first, -0.059 ± 0.035 for the second.

First: E20F
Second: A49W
The abundance fitness of the first is lower: -0.396 ± 0.05 for the first, -0.3 ± 0.032 for the second.

First: A49P
Second: A49T
The abundance fitness of the first is lower: -0.137 ± 0.028 for the first, -0.048 ± 0.028 for the second.

A49G and Q42A are within error of each other in abundance fitness: -0.126 ± 0.022 for the first, -0.071 ± 0.035 for the second.

In the case of Q42N, the abundance fitness is reported as -0.047 ± 0.081.
